Experimental data reported in US20160015831A1 (BIOALLIANCE C V, published 2016).

B1: hLL2-IgG1 (antibody)
heavy: not shown
light: DIQLTQSPSSLSASVGDRVTMSCKSSQSVLYSANHKNYLAWYQQKPGKAPKLLIYWASTRESGVPSRFSGSGSGTDFTFTISSLQPEDIATYYCHQYLSSWTFGGGTKLEIKRTVAAPSVFIFPPSDEQLKSGTASVVCLLNNFYPREAKVQWKVDNALQSGNSQESVTEQDSKDSTYSLSSTLTLSKADYEKHKVYACEVTHQGLSSPVTKSFNRGEC
notes: also called hLL2-IgG1 Ab; hLL2-wild type antibody
B2: hLL2-IgG4p (antibody)
heavy: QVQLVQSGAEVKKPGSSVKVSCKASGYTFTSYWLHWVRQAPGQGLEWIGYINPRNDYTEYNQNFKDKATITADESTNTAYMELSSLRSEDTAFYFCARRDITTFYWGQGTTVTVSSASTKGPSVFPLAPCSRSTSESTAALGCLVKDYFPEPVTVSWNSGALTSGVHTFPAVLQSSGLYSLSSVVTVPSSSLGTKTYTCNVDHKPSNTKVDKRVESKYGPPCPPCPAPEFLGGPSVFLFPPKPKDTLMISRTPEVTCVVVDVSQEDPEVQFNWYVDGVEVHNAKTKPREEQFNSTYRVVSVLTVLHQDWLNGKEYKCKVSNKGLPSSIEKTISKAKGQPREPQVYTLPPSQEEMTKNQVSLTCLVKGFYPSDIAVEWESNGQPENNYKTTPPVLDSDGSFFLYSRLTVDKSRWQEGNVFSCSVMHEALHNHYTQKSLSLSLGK
light: B1 light
notes: also called hLL2-IgG4p Ab
B3: hLL2-S442C-IgG4p (antibody, name in EU numbering)
heavy: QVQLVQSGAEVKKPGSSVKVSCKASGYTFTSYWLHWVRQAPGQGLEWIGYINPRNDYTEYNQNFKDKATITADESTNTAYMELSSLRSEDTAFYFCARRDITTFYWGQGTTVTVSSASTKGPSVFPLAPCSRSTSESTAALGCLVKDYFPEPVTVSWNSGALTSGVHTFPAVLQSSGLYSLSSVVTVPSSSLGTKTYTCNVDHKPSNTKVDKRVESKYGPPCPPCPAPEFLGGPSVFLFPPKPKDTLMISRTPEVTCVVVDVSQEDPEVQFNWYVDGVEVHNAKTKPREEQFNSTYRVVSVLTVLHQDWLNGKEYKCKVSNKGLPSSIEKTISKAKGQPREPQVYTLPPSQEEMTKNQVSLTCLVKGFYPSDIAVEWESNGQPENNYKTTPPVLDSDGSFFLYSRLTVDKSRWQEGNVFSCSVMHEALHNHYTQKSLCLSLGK
light: B1 light
notes: Position is EU numbering
B4: hLL2-T169C-IgG4p (antibody, name in EU numbering)
heavy: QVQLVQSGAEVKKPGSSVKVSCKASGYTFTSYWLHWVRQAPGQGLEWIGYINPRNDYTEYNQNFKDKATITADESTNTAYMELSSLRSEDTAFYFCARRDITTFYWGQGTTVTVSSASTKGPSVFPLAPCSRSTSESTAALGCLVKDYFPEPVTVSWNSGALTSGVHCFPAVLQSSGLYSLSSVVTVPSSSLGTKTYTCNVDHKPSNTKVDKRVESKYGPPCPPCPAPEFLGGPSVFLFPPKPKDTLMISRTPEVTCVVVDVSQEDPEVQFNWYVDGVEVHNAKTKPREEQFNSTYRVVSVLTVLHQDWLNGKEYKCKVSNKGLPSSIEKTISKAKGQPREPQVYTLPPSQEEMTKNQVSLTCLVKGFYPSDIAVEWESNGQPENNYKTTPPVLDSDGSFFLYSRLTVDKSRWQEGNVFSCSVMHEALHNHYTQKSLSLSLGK
light: B1 light
notes: Position is EU numbering
B5: hLL2-T155C-IgG4p (antibody, name in EU numbering)
heavy: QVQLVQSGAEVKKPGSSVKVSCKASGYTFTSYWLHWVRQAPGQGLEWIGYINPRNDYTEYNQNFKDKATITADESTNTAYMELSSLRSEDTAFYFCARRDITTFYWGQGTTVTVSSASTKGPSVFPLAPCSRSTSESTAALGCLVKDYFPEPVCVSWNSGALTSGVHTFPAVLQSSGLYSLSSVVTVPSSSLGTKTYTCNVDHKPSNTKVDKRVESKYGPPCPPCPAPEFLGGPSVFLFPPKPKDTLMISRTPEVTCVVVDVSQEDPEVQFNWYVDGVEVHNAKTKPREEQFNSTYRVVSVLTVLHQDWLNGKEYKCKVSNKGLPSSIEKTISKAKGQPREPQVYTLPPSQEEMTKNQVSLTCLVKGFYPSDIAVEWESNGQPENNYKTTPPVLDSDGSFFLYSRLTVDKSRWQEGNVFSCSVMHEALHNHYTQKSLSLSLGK
light: B1 light
notes: Position is EU numbering
B6: hLL2-IgG1-Tap18Hr1 (antibody)
heavy: not shown
light: B1 light
modifications: Tap18Hr1 linker-drug on cysteine thiols of the partially reduced antibody (light chain with 0 or 1 drug); sites not stated; Tap18Hr1 linker-drug (monomethyl dolastatin 10) on cysteine thiols of the partially reduced antibody, conventional conjugation, DAR 2.7-3.5; sites not stated
notes: also called Anti-hLL2-IgG1-Tap18Hr1; Anti-CD22 (hLL2)-IgG1-Tap18Hr1
B7: hLL2-S442C-IgG4p-Tap18Hr1 (antibody, name in EU numbering)
heavy: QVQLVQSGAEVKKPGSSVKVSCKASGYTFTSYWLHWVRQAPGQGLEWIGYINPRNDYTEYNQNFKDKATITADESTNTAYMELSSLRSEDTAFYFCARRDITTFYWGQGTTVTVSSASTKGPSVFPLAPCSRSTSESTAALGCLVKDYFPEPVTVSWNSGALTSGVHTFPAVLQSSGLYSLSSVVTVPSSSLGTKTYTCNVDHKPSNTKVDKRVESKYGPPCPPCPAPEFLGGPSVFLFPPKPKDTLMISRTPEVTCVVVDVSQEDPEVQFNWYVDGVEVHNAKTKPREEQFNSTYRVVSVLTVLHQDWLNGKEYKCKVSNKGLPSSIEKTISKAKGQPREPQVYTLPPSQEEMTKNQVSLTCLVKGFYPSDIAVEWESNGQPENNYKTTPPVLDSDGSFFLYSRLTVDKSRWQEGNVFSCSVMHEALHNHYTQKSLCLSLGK
light: B1 light
modifications: Tap18Hr1 linker-drug (monomethyl dolastatin 10) on the introduced Cys 442 (EU numbering); site-specific conjugation, DAR 1.58-2.01
notes: also called hLL2-S442C-IgG4p Tap18Hr1 conjugate
B8: hLL2-T155C-IgG4p-Tap18Hr1 (antibody, name in EU numbering)
heavy: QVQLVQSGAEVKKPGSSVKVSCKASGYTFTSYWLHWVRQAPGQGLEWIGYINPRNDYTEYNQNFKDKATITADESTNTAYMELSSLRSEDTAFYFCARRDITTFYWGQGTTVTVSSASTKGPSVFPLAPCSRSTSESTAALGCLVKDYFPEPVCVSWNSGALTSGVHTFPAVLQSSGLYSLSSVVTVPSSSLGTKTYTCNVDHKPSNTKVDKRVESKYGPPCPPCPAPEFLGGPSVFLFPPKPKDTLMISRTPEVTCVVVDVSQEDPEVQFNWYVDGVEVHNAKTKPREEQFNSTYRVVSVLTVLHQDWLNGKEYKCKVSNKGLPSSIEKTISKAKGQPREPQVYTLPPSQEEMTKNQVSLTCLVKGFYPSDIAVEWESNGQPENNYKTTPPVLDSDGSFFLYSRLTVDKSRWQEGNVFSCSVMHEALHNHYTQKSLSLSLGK
light: B1 light
modifications: Tap18Hr1 linker-drug (monomethyl dolastatin 10) on the introduced Cys 155 (EU numbering); site-specific conjugation, DAR 1.58-2.01
notes: also called hLL2-T155C-IgG4p Tap18Hr1 conjugate
B9: hLL2-T169C-IgG4p-Tap18Hr1 (antibody, name in EU numbering)
heavy: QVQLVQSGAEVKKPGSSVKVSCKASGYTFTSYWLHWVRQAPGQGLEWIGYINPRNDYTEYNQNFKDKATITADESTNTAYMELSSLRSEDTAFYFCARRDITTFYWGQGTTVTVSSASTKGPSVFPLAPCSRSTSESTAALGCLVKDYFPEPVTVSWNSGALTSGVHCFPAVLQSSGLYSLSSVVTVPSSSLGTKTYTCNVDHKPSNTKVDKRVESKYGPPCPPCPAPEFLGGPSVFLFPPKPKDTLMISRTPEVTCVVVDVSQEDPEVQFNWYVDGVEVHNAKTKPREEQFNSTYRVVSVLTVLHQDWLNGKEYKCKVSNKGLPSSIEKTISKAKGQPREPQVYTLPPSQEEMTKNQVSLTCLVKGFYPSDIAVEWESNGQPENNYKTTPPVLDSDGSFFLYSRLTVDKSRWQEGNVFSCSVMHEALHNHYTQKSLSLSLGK
light: B1 light
modifications: Tap18Hr1 linker-drug (monomethyl dolastatin 10) on the introduced Cys 169 (EU numbering); site-specific conjugation, DAR 1.58-2.01
notes: also called hLL2-T169C-IgG4p Tap18Hr1 conjugate
B10: hLL2-T155C-IgG1-Tap18Hr1 (antibody)
heavy: not shown
light: B1 light
modifications: Tap18Hr1 linker-drug (monomethyl dolastatin 10) on the introduced Cys 155 (EU numbering); site-specific conjugation, DAR 1.58-2.01
notes: also called hLL2-T155C-IgG1 Tap18Hr1 conjugate
B11: hLL2-T169C-IgG1-Tap18Hr1 (antibody)
heavy: not shown
light: B1 light
modifications: Tap18Hr1 linker-drug (monomethyl dolastatin 10) on the introduced Cys 169 (EU numbering); site-specific conjugation, DAR 1.58-2.01
notes: also called hLL2-T169C-IgG1 Tap18Hr1 conjugate
B12: hLL2-S165C-IgG1-Tap18Hr1 (antibody)
heavy: not shown
light: B1 light
modifications: Tap18Hr1 linker-drug (monomethyl dolastatin 10) on the introduced Cys 165 (EU numbering); site-specific conjugation, DAR 1.58-2.01
notes: also called hLL2-S165C-IgG1 Tap18Hr1 conjugate
B13: hLL2-S442C-IgG1-Tap18Hr1 (antibody)
heavy: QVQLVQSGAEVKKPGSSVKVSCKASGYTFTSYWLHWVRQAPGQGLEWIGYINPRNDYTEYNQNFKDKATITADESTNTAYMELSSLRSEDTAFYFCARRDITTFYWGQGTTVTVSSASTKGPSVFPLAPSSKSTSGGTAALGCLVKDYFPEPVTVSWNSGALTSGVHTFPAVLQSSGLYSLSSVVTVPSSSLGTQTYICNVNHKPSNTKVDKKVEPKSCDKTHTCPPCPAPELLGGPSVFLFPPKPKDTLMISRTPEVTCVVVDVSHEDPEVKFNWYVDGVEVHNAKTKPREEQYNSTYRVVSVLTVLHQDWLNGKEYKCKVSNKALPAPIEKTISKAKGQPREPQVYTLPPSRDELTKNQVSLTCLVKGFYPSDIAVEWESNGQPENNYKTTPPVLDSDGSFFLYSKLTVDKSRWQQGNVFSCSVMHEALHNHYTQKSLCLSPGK
light: B1 light
modifications: Tap18Hr1 linker-drug (monomethyl dolastatin 10) on the introduced Cys 442 (EU numbering); site-specific conjugation, DAR 1.58-2.01
notes: also called hLL2-S442C-IgG1 Tap18Hr1 conjugate
B14: hLL2-S157C-IgG1-Tap18Hr1 (antibody)
heavy: not shown
light: B1 light
modifications: Tap18Hr1 linker-drug (monomethyl dolastatin 10) on the introduced Cys 157 (EU numbering); site-specific conjugation, DAR 1.58-2.01
notes: also called hLL2-S157C-IgG1 Tap18Hr1 conjugate
B15: hLL2-S157C-IgG1 (antibody)
heavy: not shown
light: B1 light
notes: Position is EU numbering
B16: hLL2-T169C-IgG1 (antibody)
heavy: not shown
light: B1 light
notes: Position is EU numbering
B17: hLL2-T155C-IgG1 (antibody)
heavy: not shown
light: B1 light
notes: Position is EU numbering
B18: hLL2-S165C-IgG1 (antibody)
heavy: not shown
light: B1 light
notes: Position is EU numbering
B19: hLL2-S442C-IgG1 (antibody)
heavy: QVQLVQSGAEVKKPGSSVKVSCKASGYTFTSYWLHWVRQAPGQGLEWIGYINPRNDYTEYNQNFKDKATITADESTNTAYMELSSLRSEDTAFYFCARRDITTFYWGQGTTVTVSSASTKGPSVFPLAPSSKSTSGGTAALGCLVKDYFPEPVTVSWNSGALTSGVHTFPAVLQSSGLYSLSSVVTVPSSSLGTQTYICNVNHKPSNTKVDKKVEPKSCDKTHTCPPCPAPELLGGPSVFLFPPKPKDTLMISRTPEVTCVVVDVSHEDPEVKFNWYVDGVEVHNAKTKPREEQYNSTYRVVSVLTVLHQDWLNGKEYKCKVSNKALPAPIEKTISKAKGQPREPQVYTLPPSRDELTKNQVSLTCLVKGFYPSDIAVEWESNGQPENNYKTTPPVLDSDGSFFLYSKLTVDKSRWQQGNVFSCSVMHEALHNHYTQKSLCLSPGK
light: B1 light
notes: Position is EU numbering

molecular target: T1, human CD22 (human, UniProt P20273 20-847); assay: flow cytometry, Daudi cells, unconjugated Ab 3.3 µg/mL
T1 construct: Endogenous CD22 on human cell lines Daudi, Raji, Ramos, RL, REH and NALM-6; no signal peptide limits are stated; also called antigen CD22
Method: (§1) 6×10⁴˜1×10⁵ cells were seeded per well in a v-bottomed 96-well plate and incubated with 100 μl of the unconjugated Abs or the ADCs at titrated concentrations or isotype control antibody human IgG at 10 μg/mL. After 30-60 minutes of incubation at 4° C., cells were washed once with 200 μl FACS buffer (lx PBS containing 1% FBS), stained with 100 μl of 1 μg/ml goat F(ab′)2-anti-human IgG (H+L)-RPE (Southern Biotech, Cat. No. 2043-09) in FACS buffer and then incubated at 4° C. for 30˜60 min Cells were washed once with FACS buffer and analyzed by flow cytometer (BD LSR, BD Life Sciences).
(§2) In general, the site-specific conjugated hLL2-IgG4p ADCs retained antigen reactivity of antibody.

| MFI | Binder |
| --- | --- |
| 1390 | B1 |
| 792 | B2 |
| 681 | B3 |
| 761 | B4 |
| 601 | B5 |

molecular target: T1, human CD22; assay: flow cytometry, REH cells, unconjugated Ab 3.3 µg/mL
Method: as §1, §2

| MFI | Binder |
| --- | --- |
| 139 | B1 |
| 81 | B2 |
| 70 | B3 |
| 74 | B4 |
| 79 | B5 |

molecular target: T1, human CD22; assay: flow cytometry, Daudi cells, Tap18Hr1 conjugate 3.3 µg/mL
Method: as §1, §2

| MFI | Binder |
| --- | --- |
| 1400 | B6 |
| 481 | B7 |
| 515 | B8 |
| 625 | B9 |

molecular target: T1, human CD22; assay: as above; remark: another data set of the same source
Method: as §1
(§3) The binding ability of hLL2-Cys variants with or without drug conjugation was evaluated in Daudi and REH cancer cells.

| MFI | Binder |
| --- | --- |
| 1400 | B6 |
| 1230 | B10 |
| 1370 | B11 |
| 1230 | B12 |
| 914 | B13 |
| 1230 | B14 |

molecular target: T1, human CD22; assay: flow cytometry, Daudi cells, unconjugated Ab 3.3 µg/mL; remark: another data set of the same source
Method: as §1, §3

| MFI | Binder |
| --- | --- |
| 1440 | B1 |
| 1300 | B15 |
| 1300 | B16 |
| 1250 | B17 |
| 1310 | B18 |
| 1150 | B19 |

molecular target: T1, human CD22; assay: cell-based or functional assay

| Binder | % inhibition, WST-1 cytotoxicity, Daudi cells, 1.1 µg/mL [%] | % inhibition, WST-1 cytotoxicity, Daudi cells, 3.3 µg/mL [%] | % inhibition, WST-1 cytotoxicity, Ramos cells, 1.1 µg/mL [%] | % inhibition, WST-1 cytotoxicity, Ramos cells, 3.3 µg/mL [%] |
| --- | --- | --- | --- | --- |
| B10 | 71 | 72.6 | 84.9 | 88.9 |
| B11 | 69.8 | 73.6 | 85.7 | 91.4 |
| B12 | 60.5 | 65.1 | 72.6 | 79.4 |
| B13 | 77.6 | 79 | 92 | 96 |
| B14 | 76.3 | 79.4 | 90.4 | 93.9 |

molecular target: T1, human CD22; assay: flow cytometry, REH cells, Tap18Hr1 conjugate 3.3 µg/mL
Method: as §1, §3

| MFI | Binder |
| --- | --- |
| 104 | B6 |
| 87 | B13 |
| 94 | B14 |

molecular target: T1, human CD22; assay: as above; remark: another data set of the same source
Method: as §1, §2

| MFI | Binder |
| --- | --- |
| 104 | B6 |
| 52 | B7 |
| 66 | B8 |
| 60 | B9 |

molecular target: T1, human CD22; assay: cell-based or functional assay; remark: another data set of the same source

| Binder | % inhibition, WST-1 cytotoxicity, Daudi cells, 1.1 µg/mL [%] | % inhibition, WST-1 cytotoxicity, Daudi cells, 3.3 µg/mL [%] | % inhibition, WST-1 cytotoxicity, NALM-6 cells, 10 ug/ml [%] | % inhibition, WST-1 cytotoxicity, REH cells, 10 ug/ml [%] | % inhibition, WST-1 cytotoxicity, Ramos cells, 1.1 µg/mL [%] | % inhibition, WST-1 cytotoxicity, Ramos cells, 3.3 µg/mL [%] |
| --- | --- | --- | --- | --- | --- | --- |
| B7 | 65.8 | 70.6 | 28.5 | 21.3 | 86.9 | 88.9 |
| B8 | 66.2 | 70.2 | 45.3 | 22.4 | 89.4 | 94.9 |
| B9 | 67.2 | 70.8 | 68.2 | 42.6 | 89.6 | 93.3 |
